The target in one data set is T1, ProG (Bacillus subtilis, UniProt Q00777).
T1 construct: full-length; pMCSG68, N-terminal His6-TEV tag removed; E. coli BL21 Gold; homodimer by SAXS
Briefly: NAD(P)H oxidation at […] nm. The data set is classed as biochemical.

A further data set addresses T2, ProI (Bacillus subtilis, UniProt P54552).
T2 construct: full-length; pMCSG68, N-terminal His6-TEV tag removed; E. coli BL21 Gold; homodimer by SAXS
The data set is described as follows: NAD(P)H oxidation at […] nm. The data set is classed as biochemical.

In a further data set the target is T3, ProH (Bacillus subtilis, UniProt P0CI77).
T3 construct: full-length; pMCSG68, N-terminal His6-TEV tag removed; E. coli BL21 Gold; homodimer by SAXS
The data set is described as follows: NAD(P)H oxidation at […] nm. The data set is classed as biochemical.

The target in the next data set is T4, ComER (Bacillus subtilis, UniProt P39696).
T4 construct: full-length; pMCSG68, N-terminal His6-TEV tag removed; E. coli BL21 Gold; monomer by SAXS
Briefly: NAD(P)H oxidation at […] nm. The data set is classed as biochemical.

Substrate in data set [1]: NC(=O)C1=CN([C@@H]2O[C@H](COP(=O)(O)OP(=O)(O)OC[C@H]3O[C@@H](n4cnc5c(N)ncnc54)[C@H](O)[C@@H]3O)[C@@H](O)[C@H]2O)C=CC1
Briefly: purified protein. The data set is classed as biochemical, Bacillus subtilis. As to conditions: 1 mM L-P5C, 20 mM Tris-HCl pH 7.0, 30°C.

Substrate in data set [2]: NC(=O)C1=CN([C@@H]2O[C@H](COP(=O)(O)OP(=O)(O)OC[C@H]3O[C@@H](n4cnc5c(N)ncnc54)[C@H](OP(=O)(O)O)[C@@H]3O)[C@@H](O)[C@H]2O)C=CC1
The data set is described as follows: purified protein. The data set is classed as biochemical, Bacillus subtilis. Particulars: 1 mM L-P5C, 20 mM Tris-HCl pH 7.0, 30°C, kcat per monomer.

Substrate in data set [3]: O=C(O)[C@@H]1CCC=N1
Briefly: purified protein. The data set is classed as biochemical, Bacillus subtilis. As to conditions: 0.5 mM NADPH, 20 mM Tris-HCl pH 7.0, 30°C.

Data set [4] concerns the molecule itself. The data set is described as follows: small-angle X-ray scattering (SAXS) in line with SEC; each native protein at 5 mg mL^-1 loaded onto a Superdex 200 column in 20 mM HEPES pH 8.0, 150 mM NaCl, 2 mM TCEP, routed into the flow cell; oligomeric state from mass, Rg, Dmax and ab initio envelope.

As a reminder, the IC50 is the concentration that gives 50% inhibition. Read a high IC50 as weaker potency in that assay. One may read the Km as the substrate concentration at which the rate is half of its maximum. What is called kcat is the maximal rate divided by the concentration of active sites. One may read the kcat/Km as the second-order rate constant that governs catalysis at low substrate concentration. A word on the stoichiometry N: it is a count of units in the complex or per binding partner.

As to `NC(=O)c1ccc[n+]([C@@H]2O[C@H](COP(=O)(O)OP(=O)(O)OC[C@H]3O[C@@H](n4cnc5c(N)ncnc54)[C@H](OP(=O)(O)O)[C@@H]3O)[C@@H](O)[C@H]2O)c1` [NADP^+], the IC50 against ProG is 0.23 ± 0.03 mM; at ProI, 0.34 ± 0.04 mM; on ProH, 0.66 ± 0.1 mM; against ComER it was 0.48 ± 0.07 mM.
Consider `O=C(O)[C@@H]1CCCN1` [proline], for which the IC50 against ProG worked out at 22.3 ± 2.1 mM; against ProH it was 41.4 ± 4.2 mM.
For `NC(=O)c1ccc[n+]([C@@H]2O[C@H](COP(=O)(O)OP(=O)(O)OC[C@H]3O[C@@H](n4cnc5c(N)ncnc54)[C@H](O)[C@@H]3O)[C@@H](O)[C@H]2O)c1` [NAD^+], the IC50 is 6.22 ± 0.6 mM against ProI, 44.5 ± 11.6 mM on ProH and 29.7 ± 3.7 mM on ComER.

B1: ComER (Bacillus subtilis subsp. subtilis str. 168) (protein)
chain: MKIGFIGTGNMGTILIESFIESKAADPSNMTITNRTIEKALHIKNRYNSINVTESLEKLVSENEMIFICVKPLDIYPLLARALPYLRKDHILISITSPVQTEQLEQYVPCQVARVIPSITNRALAGVSLVTFGTSCGESAKAKINELMQHISHPLQIESDITRVASDIVSCGPAFMSYLIQRFIDAAVSETSVSKQDAILMCKEMLVGMGKLLETELYTLPALQEKVCVKGGVTGEGIKALESGVQDMFHRVFQNTHMKYEEDISAVKKQFHV
notes: full-length; pMCSG68, N-terminal His6-TEV tag removed; E. coli BL21 Gold; monomer by SAXS
As for B1, in the data set “purified protein [1]” (kcat per monomer), the Km is 226 ± 14 µM, the kcat was found to be 0.06 s⁻¹ and the kcat/Km turned out to be 270 M⁻¹ s⁻¹. Further, in “purified protein [2]”, the Km was 1.2 ± 0.4 µM, the catalytic constant (kcat) turned out to be 0.09 s⁻¹ and the kcat/Km turned out to be 75000 M⁻¹ s⁻¹. Besides, in the data set “purified protein [3]” (kcat per monomer), the Michaelis constant (Km) was determined as 3150 ± 1420 µM and the kcat was 0.09 s⁻¹.

B2: ProH, putative δ1-pyrroline-5-carboxylate (P5C) reductase from Bacillus subtilis (enzyme, Bacillus subtilis strain 168, UniProt P0CI77 1-297, looked up)
chain: MRTKKRTKEMLPIFDQKKVAFIGAGSMAEGMISGIVRANKIPKQNICVTNRSNTERLTELELQYGIKGALPNQLCIEDMDVLILAMKPKDAENALSSLKSRIQPHQLILSVLAGITTSFIEQSLLNEQPVVRVMPNTSSMIGASATAIALGKYVSEDLKKLAEALLGCMGEVYTIQENQMDIFTGIAGSGPAYFYYLMEFIEKTGEEAGLDKQLSRSIGAQTLLGAAKMLMETGEHPEILRDNITSPNGTTAAGLQALKKSGGGEAISQAIKHAAKRSKEISEDIEKTAAPLSGVIK
notes: ProH, putative P5C reductase, Bacillus subtilis strain 168; calculated mass 32.03 kDa; Cloned in pMCSG68 (His6 tag and TEV site at the N-terminus); also called P5C reductase ProH; source: E. coli BL21 Gold, purified (Ni-NTA, TEV cleavage, second Ni-NTA, SEC on Superdex 200); not shown: His6, N-terminal, cleaved
In the case of B2, in data set [4], the “stoichiometry N” value came to 2.

B3: ProH (Bacillus subtilis subsp. subtilis str. 168) (protein)
chain: MRTKKRTKEMLPIFDQKKVAFIGAGSMAEGMISGIVRANKIPKQNICVTNRSNTERLTELELQYGIKGALPNQLCIEDMDVLILAMKPKDAENALSSLKSRIQPHQLILSVLAGITTSFIEQSLLNEQPVVRVMPNTSSMIGASATAIALGKYVSEDLKKLAEALLGCMGEVYTIQENQMDIFTGIAGSGPAYFYYLMEFIEKTGEEAGLDKQLSRSIGAQTLLGAAKMLMETGEHPEILRDNITSPNGTTAAGLQA
notes: full-length; pMCSG68, N-terminal His6-TEV tag removed; E. coli BL21 Gold; homodimer by SAXS
Regarding B3, the Km in the data set “purified protein [1]” was 786 ± 36 µM. For the same molecule, in the data set “purified protein [2]”, the Michaelis-Menten constant (Km) worked out at 13.6 ± 2.6 µM, the kcat worked out at 814 s⁻¹ and the catalytic efficiency (kcat/Km) came out at 6.3e+07 M⁻¹ s⁻¹.

B4: ProI, putative δ1-pyrroline-5-carboxylate (P5C) reductase from Bacillus subtilis (enzyme, Bacillus subtilis strain 168, UniProt P54552 1-278, looked up)
chain: MKKIGFVGAGSMAEAMINGILQSGITKPEHIYITNRSNDERLIELKETYSVRPCRDKNEFFTHTDIIILAFKPKDAAESIDSIRPYIKDQLVISVLAGLTIETIQHYFGRKLAVIRVMPNTSAAIRKSATGFSVSTEASKNDIIAAKALLETIGDATLVEERHLDAVTAIAGSGPAYVYRYIEAMEKAAQKVGLDKETAKALILQTMAGATDMLLQSGKQPEKLRKEITSPGGTTEAGLRALQDSRFEEAIIHCIEETAKRSAEIKEQFAGAALERHS
notes: ProI, putative P5C reductase, Bacillus subtilis strain 168; calculated mass 30.90 kDa; Cloned in pMCSG68 (His6 tag and TEV site at the N-terminus); also called P5C reductase ProI; source: E. coli BL21 Gold, purified (Ni-NTA, TEV cleavage, second Ni-NTA, SEC on Superdex 200); not shown: His6, N-terminal, cleaved
With B4, in the data set “purified protein [1]” (kcat per monomer), the Km is 1,810 ± 480 μM, the catalytic constant (kcat) worked out at 0.28 s⁻¹ and the specificity constant (kcat/Km) was 150 M⁻¹ s⁻¹. In the data set “purified protein [2]”, the Michaelis constant (Km) amounted to 51.8 ± 2.8 µM, the catalytic constant (kcat) stood at 0.14 s⁻¹ and the kcat/Km was 2600 M⁻¹ s⁻¹. Further, in “purified protein [3]”, the Km was determined as 203 ± 30 µM. For the same molecule, the “stoichiometry N” value in data set [4] came out at 2.

B5: ProG, putative δ1-pyrroline-5-carboxylate (P5C) reductase from Bacillus subtilis (enzyme, Bacillus subtilis strain 168, UniProt Q00777 1-272, looked up)
chain: MEQIGLIGYGSMADMIARQLLKHEQIKENELFIETRTKGERLRALMSDYPNVSADPLENWANTCQLILICVPPLHVIETMRRLYPYVNRNTHIVSIAAGVPLRLLEAETEAGISRVIPAITSEAEAGISLVVHSEALAAEKKERLNELLSVFSRVREIKESNLDVASNLTSSAPGFIAAIFEELALSAVRNSSLSKEEAFDFLIHSLYGTGKMLIEKNMSFEETLERVATKGGITGEGAEVIHASVPDVFDEVFERTLRKYELLTEQVGKQT
notes: ProG, putative P5C reductase, Bacillus subtilis strain 168; calculated mass 30.20 kDa; Cloned in pMCSG68 (His6 tag and TEV site at the N-terminus); also called P5C reductase ProG; source: E. coli BL21 Gold, purified (Ni-NTA, TEV cleavage, second Ni-NTA, SEC on Superdex 200); not shown: His6, N-terminal, cleaved
B5: in “purified protein [2]”, the Km is 232 ± 18 µM, the kcat was determined as 19 s⁻¹ and the kcat/Km was determined as 84000 M⁻¹ s⁻¹. For the same molecule, the Michaelis constant (Km) in “purified protein [3]” was 64.9 ± 8.1 µM. Besides, the “stoichiometry N” value in data set [4] came to 2.

Values taken from paper PMC5539093, “Functional Characterization of Four Putative δ^1-Pyrroline-5-Carboxylate Reductases from Bacillus subtilis” (Frontiers in Microbiology, 2017).
